The target of assay [1] is H3 HA A/Texas/50/2012, recombinant soluble trimer (influenza A virus).
Assay [2] concerns the target H1 HA A/Solomon Islands/03/2006 (H1N1), recombinant soluble trimer (influenza A virus).
Assay [3] addresses H1 HA A/Texas/36/1991 (H1N1), recombinant soluble trimer (influenza A virus).

As a reminder, the EC50 is the concentration needed to bring the measured effect to its halfway point.

B1: rFluA-20 heavy chain mutant Y34A (antibody, V domains shown)
VH: QVQLQESGPGLVKPSETLSLTCSVSGVSVTSDIAYWTWIRQPPGKGLEWIGYIFYNGDTNYNPSLKSRVTMSIDTSKNEFSLRLTSVTAADTAVYFCARGTEDLGYCSSGSCPNHWGQGTLVTVSS
VL: DIQMTQSPSSLSASIGDRVTITCRPSQNIRSFLNWFQHKPGKAPKLLIYAASNLQSGVPSRFSGSGSGTEFTLTIRSLQPEDFATYYCQQSYNTPPTFGQGTKVEIK
As for B1, the EC50 in assay [1] stood at 0.16 µg/mL; in assay [2] it was 0.04 µg/mL; in assay [3] it was 0.05 µg/mL.

B2: rFluA-20 heavy chain mutant T96A (antibody, V domains shown)
VH: QVQLQESGPGLVKPSETLSLTCSVSGVSVTSDIYYWTWIRQPPGKGLEWIGYIFYNGDTNYNPSLKSRVTMSIDTSKNEFSLRLTSVTAADTAVYFCARGAEDLGYCSSGSCPNHWGQGTLVTVSS
VL: DIQMTQSPSSLSASIGDRVTITCRPSQNIRSFLNWFQHKPGKAPKLLIYAASNLQSGVPSRFSGSGSGTEFTLTIRSLQPEDFATYYCQQSYNTPPTFGQGTKVEIK
With B2, the results for the EC50 in assay [1], in assay [2] and in assay [3] were 0.07 µg/mL, 0.03 µg/mL and 0.04 µg/mL, respectively.

B3: rFluA-20 heavy chain mutant E97A (antibody, V domains shown)
VH: QVQLQESGPGLVKPSETLSLTCSVSGVSVTSDIYYWTWIRQPPGKGLEWIGYIFYNGDTNYNPSLKSRVTMSIDTSKNEFSLRLTSVTAADTAVYFCARGTADLGYCSSGSCPNHWGQGTLVTVSS
VL: DIQMTQSPSSLSASIGDRVTITCRPSQNIRSFLNWFQHKPGKAPKLLIYAASNLQSGVPSRFSGSGSGTEFTLTIRSLQPEDFATYYCQQSYNTPPTFGQGTKVEIK
With B3, the results for the concentration giving a half-maximal response (EC50) in assay [1], in assay [2] and in assay [3] were 0.18 µg/mL, 0.07 µg/mL and 0.05 µg/mL, respectively.

Values taken from patent US20220387578A1.
